The target in assay [1] is T1, Peptide 1, non-conjugated (MADDYGSEST-C) (human).
T1 construct: With the extra C-terminal Cys
T1 peptide: MADDYGSESTC
In words: ELISA; Ab 0.5 ug/mL; repII. As for the experimental part: (§1) In brief, plates with each non-conjugated peptide (50 μg/mL) or BSA-conjugated peptide (5 μg/mL) were coated in 0.58M carbonate-bicarbonate buffer pH9.5, 100 μL/well, at 4° C. […] After washing, wells were incubated with the 3, 3′,5,5′-Tetramethylbenzidine (TMB) HRP substrate and reactions were stopped with 2M HCl and OD450 was recorded.
For orientation: In an ELISA, binding on a coated surface is turned into a signal by an enzyme label.

Assay [2] has as its target T2, Peptide 3-BSA (SSMEDYVNFN-C conjugated to BSA) (human).
T2 peptide: SSMEDYVNFNC(BSA)
Nature of the assay: ELISA; Ab 0.5 ug/mL; repII. As for the experimental part: as §1

Assay [3] addresses T3, antigen peptide-BSA (immunisation peptide #1 MADDYGSESTSSMEDYVNFNF-C conjugated to BSA) (human, extra C-terminal Cys conjugated to BSA).
T3 construct: also called Positive control antigen peptide-BSA; MADDY peptide
T3 peptide: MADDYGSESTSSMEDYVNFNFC
Nature of the assay: ELISA; Ab 0.5 ug/mL; repII. As for the experimental part:
as §1

For assay [4], the target named is T4, Peptide 4-BSA (SMEDYVNFNF-C conjugated to BSA) (human).
T4 peptide: SMEDYVNFNFC(BSA)
Nature of the assay: ELISA; Ab 0.5 ug/mL; repII. As for the experimental part: as §1

Assay [5] concerns the target T5, Peptide 2-BSA (GSESTSSMED-C conjugated to BSA) (human).
T5 peptide: GSESTSSMEDC(BSA)
Nature of the assay: ELISA; Ab 0.5 ug/mL; repII. As for the experimental part:
as §1

The target of assay [6] is T6, Peptide 2, non-conjugated (GSESTSSMED-C) (human).
T6 construct: With the extra C-terminal Cys
T6 peptide: GSESTSSMEDC
Nature of the assay: ELISA; Ab 0.5 ug/mL; repII. The protocol: as §1

The target in assay [7] is T7, Peptide 4, non-conjugated (SMEDYVNFNF-C) (human).
T7 construct: With the extra C-terminal Cys
T7 peptide: SMEDYVNFNFC
Nature of the assay: ELISA; Ab 0.5 ug/mL; repII. As for the experimental part: as §1

Assay [8] addresses T8, Peptide 1-BSA (MADDYGSEST-C conjugated to BSA) (human).
T8 peptide: MADDYGSESTC(BSA)
Nature of the assay: ELISA; Ab 0.5 ug/mL; repII. The protocol: as §1

The target in assay [9] is T9, BSA (negative control coating) (bovine, UniProt P02769 25-607).
T9 construct: also called Negative control BSA
T9 sequence (P02769 25-607 limits assumed): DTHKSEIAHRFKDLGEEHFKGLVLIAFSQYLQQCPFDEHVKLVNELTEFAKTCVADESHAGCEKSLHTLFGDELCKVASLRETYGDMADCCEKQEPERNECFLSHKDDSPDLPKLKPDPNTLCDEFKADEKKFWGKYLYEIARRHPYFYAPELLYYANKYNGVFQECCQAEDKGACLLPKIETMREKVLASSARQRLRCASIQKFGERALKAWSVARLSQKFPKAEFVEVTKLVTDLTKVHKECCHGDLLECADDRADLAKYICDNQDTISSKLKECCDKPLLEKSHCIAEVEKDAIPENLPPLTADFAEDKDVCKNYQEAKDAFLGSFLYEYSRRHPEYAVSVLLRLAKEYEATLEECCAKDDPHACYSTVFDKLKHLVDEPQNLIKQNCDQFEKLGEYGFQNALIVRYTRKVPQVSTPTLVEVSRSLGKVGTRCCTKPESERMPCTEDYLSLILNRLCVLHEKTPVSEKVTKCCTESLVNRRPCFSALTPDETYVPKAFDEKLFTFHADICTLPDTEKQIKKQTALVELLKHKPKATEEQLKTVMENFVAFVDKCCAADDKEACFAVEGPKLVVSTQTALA
In words: ELISA; Ab 0.5 ug/mL; repII. The protocol: as §1

Assay [10] concerns the target T10, Peptide 3, non-conjugated (SSMEDYVNFN-C) (human).
T10 construct: With the extra C-terminal Cys
T10 peptide: SSMEDYVNFNC
In words: ELISA; Ab 0.5 ug/mL; repII. As for the experimental part: as §1

For assay [11], the target named is T1, Peptide 1, non-conjugated (MADDYGSEST-C). Nature of the assay: ELISA; Ab 0.01563 ug/mL; repII. As for the experimental part:
as §1

The target of assay [12] is T2, Peptide 3-BSA (SSMEDYVNFN-C conjugated …). Nature of the assay: ELISA; Ab 0.01563 ug/mL; repII. As for the experimental part:
as §1

Assay [13] deals with T3, antigen peptide-BSA (immunisation …). In words: ELISA; Ab 0.01563 ug/mL; repII. The protocol:
as §1

The target of assay [14] is T4, Peptide 4-BSA (SMEDYVNFNF-C conjugated …). In words: ELISA; Ab 0.01563 ug/mL; repII. As for the experimental part: as §1
The target of assay [15] is T5, Peptide 2-BSA (GSESTSSMED-C conjugated …). In words: ELISA; Ab 0.01563 ug/mL; repII. The protocol:
as §1

Assay [16] concerns the target T6, Peptide 2, non-conjugated (GSESTSSMED-C). In words: ELISA; Ab 0.01563 ug/mL; repII. As for the experimental part: as §1
Assay [17] has as its target T7, Peptide 4, non-conjugated (SMEDYVNFNF-C). In words: ELISA; Ab 0.01563 ug/mL; repII. As for the experimental part:
as §1

Assay [18] deals with T8, Peptide 1-BSA (MADDYGSEST-C conjugated …). In words: ELISA; Ab 0.01563 ug/mL; repII. As for the experimental part: as §1
Assay [19] concerns the target T9, BSA (negative control coating). In words: ELISA; Ab 0.01563 ug/mL; repII. As for the experimental part: as §1
The target of assay [20] is T10, Peptide 3, non-conjugated (SSMEDYVNFN-C). Nature of the assay: ELISA; Ab 0.01563 ug/mL; repII. As for the experimental part:
as §1

The target in assay [21] is T1, Peptide 1, non-conjugated (MADDYGSEST-C). In words: ELISA; Ab 0.01563 ug/mL; repI. The protocol:
as §1

Assay [22] addresses T4, Peptide 4-BSA (SMEDYVNFNF-C conjugated …). In words: ELISA; Ab 0.01563 ug/mL; repI. The protocol:
as §1

Assay [23] concerns the target T5, Peptide 2-BSA (GSESTSSMED-C conjugated …). In words: ELISA; Ab 0.01563 ug/mL; repI. The protocol:
as §1

For assay [24], the target named is T6, Peptide 2, non-conjugated (GSESTSSMED-C). Nature of the assay: ELISA; Ab 0.01563 ug/mL; repI. As for the experimental part:
as §1

The target of assay [25] is T8, Peptide 1-BSA (MADDYGSEST-C conjugated …). Nature of the assay: ELISA; Ab 0.01563 ug/mL; repI. As for the experimental part: as §1
Assay [26] addresses T11, Pep1-48, N-terminal domain 1 of CCR9, amino acids 1 to 48 (human).
T11 construct: Chemically synthesized (Genscript), purity >75%; also called CCR9 N-terminal 1-48 peptide
T11 peptide: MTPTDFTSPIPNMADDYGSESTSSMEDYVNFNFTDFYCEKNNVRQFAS
Nature of the assay: BLI, His-tagged scFv on NTA biosensor, Pep1-48 as analyte, 1:1 global fit; paragraph 309 says that Comp-1 does not bind, in agreement with the BLI results of Table 11. As for the experimental part: The affinity between the CCR9-N-terminal domain 1 of CCR9 and the different scFvs was determined by Bio-Layer Interferometry (BLI), a technique that allows quantitative and qualitative measurement of biomolecular interactions in real-time. Briefly, scFv were immobilized onto NTA Biosensor (Sartorius) and quantification was performed in an Octet RED384 (Sartorius). scFv were dissolved in PBS (150 mM NaCl, 38 mM Na2HPO4, 12 mM NaH2PO4, pH 7.2) and a buffer containing 0.03% Tween-20 in PBS, pH 7.2 was used for baseline steps.

Consider two molecules from patent US20260232732A1 (FUNDACI INSTITUT DE RECERCA CONTRA LA LEUC MIA JOSEP …, published 2026).

Where no end group is shown, it is not given here.

B1: anti-CCR9 antibody clone 115 (murine, from hybridoma #115) (antibody, V domains shown)
VH: QVQLKQSGPELVKPGTSVRVSCTASGYSFTDYIIYWVKQSHGRSLEWIGYIDPNNYNTRYSQKFKGKATLTVDKSSTSAFMHLNSLTSDDSAVYYCARDVYWGQGTTLTVSS
VL: DVVMTQTPLSLTVSLGDQASISCRSSQSLVHSNGKTYLQWYLQKPGQSPKLLIYKVSNRFSGVPDRFSGSGSGTDFTLKISRVEAEDLGVYFCAQSTHVWTFGGGTKLEIKR
notes: Mouse IgG1
On to B1, for which the OD450 in [1] was 0.02 OD; in [2], 2.06 OD; in assay [3], 2.57 OD; in assay [4], 2.65 OD; in [5], 0.02 OD; in [6] it was 0.02 OD. The OD450 is 2.37 OD in assay [7]; 0.02 OD in [8]; 0.02 OD in assay [9]; 1.83 OD in [10]; 0.01 OD in assay [11]; 1.34 OD in [12]. Also, the OD450 in [13] is 1.21 OD; in [14] it was 1.03 OD; in assay [15], 0.01 OD; in assay [16], 0.01 OD; in assay [17] it was 0.46 OD; in assay [18], 0.01 OD. In addition, the OD450 in [19] is 0.01 OD; in [20], 1.4 OD; in assay [21] it was 0.01 OD; in [22], 0.91 OD; in assay [23], 0.01 OD; in assay [24] it was 0.01 OD. In assay [25], this molecule displayed an OD450 of 0.01 OD.

B2: Comparative antibody 1 (Comp-1) scFv, SEQ ID NO: 10 from WO2023/037125 A1, His-tagged (scFv)
scFv: QVQLKESGPGLVQPSQTLSLTCTVSGFSVASYDMHWVRLPPGKGLEWMGIIWANGNTHYNSGLKSRLSISRDTSKSQVFLKMNSLQTEDTAIYFCTRGGFAYWGQGTLVTVSSGGGGSGGGGSGGGGSGGGGSDVVMTQTPVSLSVSLGGQVSISCRSSQSLVHNNGNTYLSWYLQKPGQSPQLLIYKVSNRFSGVSDRFSGSGSGTDFTLKISRVEPDDLGVYYCGQGTQYPTFGGGTKLELKHHHHHH
On to B2, for which the binding result in assay [26] is “no binding”.
